# Laboratory results published in patent US12679888B2, “IL-18 binding protein (IL-18BP) and antibodies for treating inflammatory diseases” (AB2 BIO SA, priority 2015, dated 2026).
# Values joined by “and” are separate entries in the source; they are usually repeats but may differ in a detail not shown here. Identical values can stand only once. Like-named read-outs stand apart in the source and are kept apart here.
# T1: IL-18 previously complexed to IL-18BP (Homo sapiens, UniProt Q14116)
# T1 sequence (Q14116 37-193): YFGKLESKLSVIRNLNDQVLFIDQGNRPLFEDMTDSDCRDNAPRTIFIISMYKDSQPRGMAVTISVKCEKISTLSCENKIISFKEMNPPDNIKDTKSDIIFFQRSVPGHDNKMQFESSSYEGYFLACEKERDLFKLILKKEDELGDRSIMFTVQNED
# T1 sequence (O95998 31-194 partner): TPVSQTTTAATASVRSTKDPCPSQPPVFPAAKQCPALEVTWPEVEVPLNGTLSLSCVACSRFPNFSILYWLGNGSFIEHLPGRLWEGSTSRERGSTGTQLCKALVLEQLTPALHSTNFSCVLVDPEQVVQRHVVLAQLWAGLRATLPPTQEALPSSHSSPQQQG
# T2: human interleukin-18 (Homo sapiens, UniProt Q14116)
# T2 sequence (Q14116 37-193): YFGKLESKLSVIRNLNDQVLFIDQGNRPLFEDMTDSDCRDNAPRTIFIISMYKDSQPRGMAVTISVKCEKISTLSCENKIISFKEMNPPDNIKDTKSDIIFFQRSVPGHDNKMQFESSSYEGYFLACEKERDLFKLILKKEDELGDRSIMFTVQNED
# T3: IL-18 (Homo sapiens, UniProt Q14116)
# T3 sequence (Q14116 37-193): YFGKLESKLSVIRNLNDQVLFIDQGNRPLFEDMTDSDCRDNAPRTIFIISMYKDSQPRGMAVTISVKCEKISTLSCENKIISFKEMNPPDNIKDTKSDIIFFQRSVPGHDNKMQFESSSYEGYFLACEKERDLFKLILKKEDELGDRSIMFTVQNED
# Assays:
# [1] = molecular target: T1, IL-18 previously complexed to IL-18BP; assay: Luminex screening third step: monoclonal antibody binding on IL-18 previously complexed to IL-18BP; conditions: for fluorescence signal after binding IL-18 in the presence of IL-18BP: third screening step
# Source text: Third step. A third screening program was undertaken with Luminex beads linked to IL-18BP and then complexed to interleukin-18, assuring the presentation of properly folded recombinant IL-18 to positive antibody candidates.
# human interleukin-18 = molecular target: T2, human interleukin-18; assay: Luminex screening first step: monoclonal antibodies binding on IL-18; conditions: IL-18 attached to Luminex beads
# Source text: Mice were vaccinated against human interleukin-18 using a technology allowing immunization with properly folded proteins. Prior to immunization, genetically modified mice were selected for major histocompatibility complexes supposedly sensitive to IL-18 surface area epitopes binding IL-18BP. Following immunization, B cells were isolated from spleen and hybridized following standard hybridoma technology. Hybridoma were sorted onto microplates and then tested for expression of monoclonal anti-IL-18 antibodies targeting IL-18 epitopes included in IL-18BP binding site. The screening was performed in 3 sequential and selective steps: […]
# IL-18 [2] = molecular target: T3, IL-18; assay: Luminex screening second step: biotinylated IL-18BP binding on IL-18 previously complexed to monoclonal antibody
# Source text: Second step. Potential antibodies targeting IL-18 on IL-18BP binding site were rescreened in competition with IL-18BP, but not with IL-18BP fusions with Fc antibody domains, or other type of fusions, in order to prevent false antibody positive candidates due to steric hindrance created by the fused peptide. For this, monoclonal antibodies were bound to Luminex beads carrying IL-18. The complex was then exposed to biotinylated IL-18BP in order to identify interference to previously identified anti-IL-18 antibodies (see Table 7, Column #2).
# IL-18 [3] = molecular target: T3, IL-18; assay: KD of monoclonal antibodies by titration with a defined IL-18 molarity (EC50, Law of Mass Action); format: binding
# Protocol: The respective KD values of each monoclonal antibody was calculated following titration of the antibodies with a defined IL-18 molarity and derived from the obtained EC50 values with the Law of Mass Action (see above).
fluorescence signal after binding IL-18 in the presence of IL-18BP [1],"Monoclonal antibodies binding on IL-18, Fluorescence intensity (human interleukin-18)","IL-18BP binding on IL-18 previously complexed to monoclonal antibody, Fluorescence intensity (IL-18 [2])","Column #3 Monoclonal antibody binding on IL-18 previously complexed to IL-18BP, Fluorescence intensity ([1]; Luminex beads linked to IL-18BP, complexed to IL-18)","Kd (IL-18 [3]; mean of determinations, read-out: KD, Mean) [nM]","Kd (IL-18 [3]; single determinations, read-out: KD)",Molecule
very low fluorescence signal,23 839,1 488,,,,"Antibody 132H4: monoclonal anti-IL-18 antibody; VH SEQ ID NO 23, VK SEQ ID NO 24 (antibody, V domains shown, Antibody 132H4 VH variable domain sequence; Antibody 132H4 VK variable domain sequence) VH: EVKLVESGGGLVKPGGSLKLSCAASGFTFSNYAMSWVRQNPAKRLEWVATISSGGANIYYPDSVKGRFIISRDNARNTLYLQMSSLRSEDTAMYYCARGDYFNHFWFAYWGQGTLVTVSA VL: DVLMTQTPLSLPVSLGDQASISCRSSQSIVHSNGNTYLEWYLQKPGQSPKFLIYKVSNRFSGVPDRFSGSGSGTDFTLKINRVEAEDLGIYYCFQGSHVPWTFGGGTKLEIK"
very low fluorescence signal,26 250,1 389,,,,"Antibody 107C6: monoclonal anti-IL-18 antibody; VH SEQ ID NO 9, VK SEQ ID NO 10 (antibody, V domains shown, Antibody 107C6 VH variable domain sequence; Antibody 107C6 VK variable domain sequence) VH: QIQLVQSGPELKKPGETVKLSCRASGYTFTNYGMNWVKQAPGKGLKWMGWINTYSGVPTYADDFKGQFAFSLETSAATAFLQINNLKDEDTATYFCAREGYSTTRSMDYWGQGTSVTVSS VL: DIVMSQSPSSLAVSAGEKVTMSCKSSQSLLDSRTRKNYLVWYQQKPGQSPKLLIYWASTRGSGVPDRFTGSGSGTDFTLTISSVQAEDLAVYYCKQSYNLRTFGGGTKLEIK"
very low fluorescence signal,25 126,1 292,,,,"Antibody 108F8: monoclonal anti-IL-18 antibody; VH SEQ ID NO 11, VK SEQ ID NO 12 (antibody, V domains shown, Antibody 108F8 VH variable domain sequence; Antibody 108F8 VK variable domain sequence) VH: QIQLVQSGPDSKKPGETVKLSCRASGYTFTNYGMNWVKQAPGKGLKWMGWINTYSGVPTYADDFKGQFAFSLETSAATAFLQINNLKDEDTATYFCAREGYSTTRSMDYWGQGTSVTVSS VL: DIVMSQSPSSLAVSAGEKVTMSCKSSQSLLDSRTRKNYLVWYQQKPGQSPKLLIYWASTRGSGVPDRFTGSGSGTDFTLTISSVQAEDLAVYYCKQSYNLRTFGGGTKLEIK"
very low fluorescence signal,25 848,,,,,"Antibody 109A6: monoclonal anti-IL-18 antibody; VH SEQ ID NO 13, VK SEQ ID NO 14 (antibody, V domains shown, Antibody 109A6 VH variable domain sequence; Antibody 109A6 VK variable domain sequence) VH: EVQLQQSGAELVKPGASVKLSCTASGFKIKDTYIHWVIQRPAQGLEWIGRIDPANGNTIYGSKFQGKATLTADTSSNTAYIHLSSLTSGDSAVYYCAGYVWFAYWGQGTLVTVSA VL: DVVMTQVPLSLPVSLGDQASISCRSSQRLVHSNGNTYLHWFLQKPGQSPKLLIYTVSNRFSGVPDRFSGSGSGTDFTLKISRVEAEDLGVYFCSQSTLVPWTFGGGTKLEIK"
very low fluorescence signal,24 838,1 656,41,0.015,0.02 nM and 0.01 nM,"Antibody 131B4: monoclonal anti-IL-18 antibody; VH SEQ ID NO 18, 103 or 109, VK SEQ ID NO 19 (antibody, V domains shown) VH: EVQVQQSGAELVKPGASVKLSCTASGFKIKDTYIHWLKQRPEQGLEWIGRIDPANGNTIYGSKFQGKATITADTSSNTAYIQLSSLTSGDTAVYFCAGYVWFAYWGQGTLVTVSA VL: DAVLTQTPLSLPVSLGDQASISCTSSQSLVHSNGNTYLHWYLQKPGQSPKLLIYKVSDRFSGVPDRFSGSGSGTDFTLMITRVEAEDLGVYFCSQSSLVPWTFGGGTKLEVK"
